Source: US20130315910A1 (Xencor, published 2013)

T1: mFcγRIIb (Mus musculus, UniProt P08101)
T1 construct: extracellular region, C-terminal His- and GST-tag; also called mouse FcγRII
T1 sequence (receptor extracellular region, looked up): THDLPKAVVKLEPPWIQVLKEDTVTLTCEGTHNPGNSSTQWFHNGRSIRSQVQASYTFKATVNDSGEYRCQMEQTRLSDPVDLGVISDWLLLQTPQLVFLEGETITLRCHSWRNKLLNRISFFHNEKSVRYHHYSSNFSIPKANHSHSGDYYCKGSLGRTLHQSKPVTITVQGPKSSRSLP

T2: cynoFcγRIIb (Macaca fascicularis, UniProt A0A140HDP4)
T2 construct: extracellular region, C-terminal His- and GST-tag; also called cynomolgus monkey FcγRIIb
T2 sequence (receptor extracellular region): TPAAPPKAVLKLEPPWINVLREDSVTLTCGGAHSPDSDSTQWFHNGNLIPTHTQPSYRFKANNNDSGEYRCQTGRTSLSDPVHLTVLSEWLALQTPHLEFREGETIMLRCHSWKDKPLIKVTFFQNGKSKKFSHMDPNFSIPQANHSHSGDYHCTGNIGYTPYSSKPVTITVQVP

T3: human FcγRIIb receptor protein (R&D Systems) (human, UniProt P31994 46-217)
T3 construct: Bought protein injected over captured antibody in Biacore; also called CD32b
T3 sequence (looked up): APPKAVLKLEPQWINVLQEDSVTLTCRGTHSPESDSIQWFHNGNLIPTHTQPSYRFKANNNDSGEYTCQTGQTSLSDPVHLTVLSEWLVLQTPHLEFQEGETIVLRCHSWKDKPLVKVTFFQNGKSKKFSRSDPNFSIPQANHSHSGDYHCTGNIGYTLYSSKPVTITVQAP


How the values were obtained:
Assay in all cases: SPR
mFcγRIIb = target: T1, mFcγRIIb
cynoFcγRIIb = target: T2, cynoFcγRIIb
[1] = target: T3, human FcγRIIb receptor protein (R&D …)

Binder | Fold vs WT IgG1 (Kd) (mFcγRIIb) [fold] | Fold vs WT IgG1 (Kd) (cynoFcγRIIb) [fold] | Fold vs WT IgG1 [1] [fold] | Kd [1] [nM]
S239D/L328Y/I332E (antibody, human IgG1, kappa, HuAM4G7 anti-CD19 IgG1 (m1) with these Fc substitutions, EU index; copies: 2 + 2) heavy: EVQLVESGGGLVKPGGSLKLSCAASGYTFTSYVMHWVRQAPGKGLEWIGYINPYNDGTKYNEKFQGRVTISSDKSISTAYMELSSLRSEDTAMYYCARGTYYYGTRVFDYWGQGTLVTVSSASTKGPSVFPLAPSSKSTSGGTAALGCLVKDYFPEPVTVSWNSGALTSGVHTFPAVLQSSGLYSLSSVVTVPSSSLGTQTYICNVNHKPSNTKVDKKVEPKSCDKTHTCPPCPAPELLGGPDVFLFPPKPKDTLMISRTPEVTCVVVDVSHEDPEVKFNWYVDGVEVHNAKTKPREEQYNSTYRVVSVLTVLHQDWLNGKEYKCKVSNKAYPAPEEKTISKAKGQPREPQVYTLPPSREEMTKNQVSLTCLVKGFYPSDIAVEWESNGQPENNYKTTPPVLDSDGSFFLYSKLTVDKSRWQQGNVFSCSVMHEALHNHYTQKSLSLSPGK light: DIVMTQSPATLSLSPGERATLSCRSSKSLQNVNGNTYLYWFQQKPGQSPQLLIYRMSNLNSGVPDRFSGSGSGTEFTLTISSLEPEDFAVYYCMQHLEYPITFGAGTKLEIKRTVAAPSVFIFPPSDEQLKSGTASVVCLLNNFYPREAKVQWKVDNALQSGNSQESVTEQDSKDSTYSLSSTLTLSKADYEKHKVYACEVTHQGLSSPVTKSFNRGEC | 1.7 | 5.12 | 7.41 | 198
S239D/S267E/I332E (antibody, human IgG1, kappa, HuAM4G7 anti-CD19 IgG1 (m1) with these Fc substitutions, EU index; copies: 2 + 2) heavy: EVQLVESGGGLVKPGGSLKLSCAASGYTFTSYVMHWVRQAPGKGLEWIGYINPYNDGTKYNEKFQGRVTISSDKSISTAYMELSSLRSEDTAMYYCARGTYYYGTRVFDYWGQGTLVTVSSASTKGPSVFPLAPSSKSTSGGTAALGCLVKDYFPEPVTVSWNSGALTSGVHTFPAVLQSSGLYSLSSVVTVPSSSLGTQTYICNVNHKPSNTKVDKKVEPKSCDKTHTCPPCPAPELLGGPDVFLFPPKPKDTLMISRTPEVTCVVVDVEHEDPEVKFNWYVDGVEVHNAKTKPREEQYNSTYRVVSVLTVLHQDWLNGKEYKCKVSNKALPAPEEKTISKAKGQPREPQVYTLPPSREEMTKNQVSLTCLVKGFYPSDIAVEWESNGQPENNYKTTPPVLDSDGSFFLYSKLTVDKSRWQQGNVFSCSVMHEALHNHYTQKSLSLSPGK light: DIVMTQSPATLSLSPGERATLSCRSSKSLQNVNGNTYLYWFQQKPGQSPQLLIYRMSNLNSGVPDRFSGSGSGTEFTLTISSLEPEDFAVYYCMQHLEYPITFGAGTKLEIKRTVAAPSVFIFPPSDEQLKSGTASVVCLLNNFYPREAKVQWKVDNALQSGNSQESVTEQDSKDSTYSLSSTLTLSKADYEKHKVYACEVTHQGLSSPVTKSFNRGEC | 1 | 10 | 124 | 11.8
H268D/A327D/L328Y (antibody, human IgG1, kappa, HuAM4G7 anti-CD19 IgG1 (m1) with these Fc substitutions, EU index; copies: 2 + 2) heavy: EVQLVESGGGLVKPGGSLKLSCAASGYTFTSYVMHWVRQAPGKGLEWIGYINPYNDGTKYNEKFQGRVTISSDKSISTAYMELSSLRSEDTAMYYCARGTYYYGTRVFDYWGQGTLVTVSSASTKGPSVFPLAPSSKSTSGGTAALGCLVKDYFPEPVTVSWNSGALTSGVHTFPAVLQSSGLYSLSSVVTVPSSSLGTQTYICNVNHKPSNTKVDKKVEPKSCDKTHTCPPCPAPELLGGPSVFLFPPKPKDTLMISRTPEVTCVVVDVSDEDPEVKFNWYVDGVEVHNAKTKPREEQYNSTYRVVSVLTVLHQDWLNGKEYKCKVSNKDYPAPIEKTISKAKGQPREPQVYTLPPSREEMTKNQVSLTCLVKGFYPSDIAVEWESNGQPENNYKTTPPVLDSDGSFFLYSKLTVDKSRWQQGNVFSCSVMHEALHNHYTQKSLSLSPGK light: DIVMTQSPATLSLSPGERATLSCRSSKSLQNVNGNTYLYWFQQKPGQSPQLLIYRMSNLNSGVPDRFSGSGSGTEFTLTISSLEPEDFAVYYCMQHLEYPITFGAGTKLEIKRTVAAPSVFIFPPSDEQLKSGTASVVCLLNNFYPREAKVQWKVDNALQSGNSQESVTEQDSKDSTYSLSSTLTLSKADYEKHKVYACEVTHQGLSSPVTKSFNRGEC | 18.7 | 3.58 | 3.49 | 420
H268D/L328Y (antibody, human IgG1, kappa, HuAM4G7 anti-CD19 IgG1 (m1) with these Fc substitutions, EU index; copies: 2 + 2) heavy: not shown light: DIVMTQSPATLSLSPGERATLSCRSSKSLQNVNGNTYLYWFQQKPGQSPQLLIYRMSNLNSGVPDRFSGSGSGTEFTLTISSLEPEDFAVYYCMQHLEYPITFGAGTKLEIKRTVAAPSVFIFPPSDEQLKSGTASVVCLLNNFYPREAKVQWKVDNALQSGNSQESVTEQDSKDSTYSLSSTLTLSKADYEKHKVYACEVTHQGLSSPVTKSFNRGEC | 2.79 | 2.92 | 1.91 | 767

More lines, in order of falling Kd [1], values ahead:

Fold vs WT IgG1 (Kd) (mFcγRIIb) [fold] | Fold vs WT IgG1 (Kd) (cynoFcγRIIb) [fold] | Fold vs WT IgG1 [1] [fold] | Kd [1] [nM] | Binder
46.5 | 6.46 | 19.8 | 74.1 | S239D/S267A/L328Y (antibody, human IgG1, kappa, HuAM4G7 anti-CD19 IgG1 (m1) with these Fc substitutions, EU index; copies: 2 + 2) heavy: EVQLVESGGGLVKPGGSLKLSCAASGYTFTSYVMHWVRQAPGKGLEWIGYINPYNDGTKYNEKFQGRVTISSDKSISTAYMELSSLRSEDTAMYYCARGTYYYGTRVFDYWGQGTLVTVSSASTKGPSVFPLAPSSKSTSGGTAALGCLVKDYFPEPVTVSWNSGALTSGVHTFPAVLQSSGLYSLSSVVTVPSSSLGTQTYICNVNHKPSNTKVDKKVEPKSCDKTHTCPPCPAPELLGGPDVFLFPPKPKDTLMISRTPEVTCVVVDVAHEDPEVKFNWYVDGVEVHNAKTKPREEQYNSTYRVVSVLTVLHQDWLNGKEYKCKVSNKAYPAPIEKTISKAKGQPREPQVYTLPPSREEMTKNQVSLTCLVKGFYPSDIAVEWESNGQPENNYKTTPPVLDSDGSFFLYSKLTVDKSRWQQGNVFSCSVMHEALHNHYTQKSLSLSPGK light: DIVMTQSPATLSLSPGERATLSCRSSKSLQNVNGNTYLYWFQQKPGQSPQLLIYRMSNLNSGVPDRFSGSGSGTEFTLTISSLEPEDFAVYYCMQHLEYPITFGAGTKLEIKRTVAAPSVFIFPPSDEQLKSGTASVVCLLNNFYPREAKVQWKVDNALQSGNSQESVTEQDSKDSTYSLSSTLTLSKADYEKHKVYACEVTHQGLSSPVTKSFNRGEC
4.26 | 7.46 | 39.8 | 36.9 | H268D/L328W/I332E (antibody, human IgG1, kappa, HuAM4G7 anti-CD19 IgG1 (m1) with these Fc substitutions, EU index; copies: 2 + 2) heavy: EVQLVESGGGLVKPGGSLKLSCAASGYTFTSYVMHWVRQAPGKGLEWIGYINPYNDGTKYNEKFQGRVTISSDKSISTAYMELSSLRSEDTAMYYCARGTYYYGTRVFDYWGQGTLVTVSSASTKGPSVFPLAPSSKSTSGGTAALGCLVKDYFPEPVTVSWNSGALTSGVHTFPAVLQSSGLYSLSSVVTVPSSSLGTQTYICNVNHKPSNTKVDKKVEPKSCDKTHTCPPCPAPELLGGPSVFLFPPKPKDTLMISRTPEVTCVVVDVSDEDPEVKFNWYVDGVEVHNAKTKPREEQYNSTYRVVSVLTVLHQDWLNGKEYKCKVSNKAWPAPEEKTISKAKGQPREPQVYTLPPSREEMTKNQVSLTCLVKGFYPSDIAVEWESNGQPENNYKTTPPVLDSDGSFFLYSKLTVDKSRWQQGNVFSCSVMHEALHNHYTQKSLSLSPGK light: DIVMTQSPATLSLSPGERATLSCRSSKSLQNVNGNTYLYWFQQKPGQSPQLLIYRMSNLNSGVPDRFSGSGSGTEFTLTISSLEPEDFAVYYCMQHLEYPITFGAGTKLEIKRTVAAPSVFIFPPSDEQLKSGTASVVCLLNNFYPREAKVQWKVDNALQSGNSQESVTEQDSKDSTYSLSSTLTLSKADYEKHKVYACEVTHQGLSSPVTKSFNRGEC
